Results reported in US7445940.

Molecular target: human endoglin (human) (UniProt P17813)
Assay: cell-based or functional assay

Chain of UniProt P17813 (P17813 26-658): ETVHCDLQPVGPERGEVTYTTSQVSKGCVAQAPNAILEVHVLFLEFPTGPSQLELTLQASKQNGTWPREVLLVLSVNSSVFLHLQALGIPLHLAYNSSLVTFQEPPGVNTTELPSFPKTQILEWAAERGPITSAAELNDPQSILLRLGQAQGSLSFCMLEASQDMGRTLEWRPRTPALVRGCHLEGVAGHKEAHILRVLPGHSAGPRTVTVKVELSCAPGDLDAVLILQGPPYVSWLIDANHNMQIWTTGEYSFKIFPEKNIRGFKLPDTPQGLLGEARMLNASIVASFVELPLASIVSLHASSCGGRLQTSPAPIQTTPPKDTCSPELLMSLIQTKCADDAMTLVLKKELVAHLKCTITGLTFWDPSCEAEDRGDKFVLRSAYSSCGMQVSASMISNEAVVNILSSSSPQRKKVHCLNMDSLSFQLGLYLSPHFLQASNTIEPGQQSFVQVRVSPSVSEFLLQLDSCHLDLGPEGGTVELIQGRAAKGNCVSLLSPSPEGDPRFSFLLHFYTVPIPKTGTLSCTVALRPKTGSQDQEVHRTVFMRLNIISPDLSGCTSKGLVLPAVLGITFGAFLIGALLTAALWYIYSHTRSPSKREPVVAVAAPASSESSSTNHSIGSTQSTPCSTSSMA

Murine monoclonal antibody (MAb) 44G4 specific for human endoglin
EVT outgrowth and migration (EVT outgrowths/villous tip), 24 h after addition (day 2 of culture) (EVT outgrowths/villous tip): 2.03 | concentration of maximal stimulation of EVT outgrowth: 1 µg/mL | fibronectin (FN) synthesis by villous explants, fold increase relative to control: 8 fold
